Legend:
RSV F on RSV-A2 virus = RSV F on RSV-A2 virus (Respiratory Syncytial Virus (RSV-A2), UniProt P03420 26-574); assay: cell-based or functional assay
[1] = target: RSV prefusion F (preF), DS-Cav1 (Respiratory Syncytial Virus, UniProt P03420 26-513); assay: BLI, IgG on anti-human IgG sensor, 100 nM antigen, 1:1 fit
[2] = target: RSV postfusion F (postF), F ΔFP (Respiratory Syncytial Virus, UniProt P03420 26-513); assay: as above

B1: ADI-41481 (antibody, V domains shown)
VH: QVQLVESGPGLVKPSETLSLACSVSGVSISTYYWTWIRQPPGKGLEWIGYISYSGSTNYNPSLKSRVTISADTSKNQFSLRLNSVTAADTAVYYCARTYYDFWSTYYGEFDHWGHGTLVTVSS
VL: SYELTQPLSVSVALGQTARITCGGNNIESKNVHWYQQKPGQAPVVVMYRDTNRPSGIPERFSGSNSGNTATLTISRAQAGDEADYYCQVWDSGTAGVVFGGGTKVTVL
notes: also called Ab 763; Antibody Number 763
With B1 the “Neutralization IC50 (RSV subtype A)” value (RSV F on RSV-A2 virus) was 0.68 µg/mL, the Kd [1] was 2.09 nM and the Kd [2] was 0.443 nM.

B2: ADI-41493 (antibody, V domains shown)
VH: QVQLVQSGAEVKKPGESLKISCKGSGYSFTKYWIGWVRQLPGKGLEWMGIIYPGDSETIYSPSFQGQVTISADKSVSTAYLQWSSLKASDTAMYYCARQTFVFWGESHDAFDIWGQGTTVTVSS
VL: QPVLTQPPSASGSPGQSVTISCTGTSSDVGAHNYVSWYQQHPGKAPKLMIYEVSKRPSGVPDRFSGSKSGNTASLTVSGLQAEDEADYYCSSYAGSNNWVFGGGTKLTVL
notes: also called Ab 773; Antibody Number 773
With B2 the “Neutralization IC50 (RSV subtype A)” value (RSV F on RSV-A2 virus) was greater than 25 µg/mL, the Kd [1] was 0.45 nM and the Kd [2] was 0.372 nM.

B3: ADI-41482 (antibody, V domains shown)
VH: QVQLVQSGAEVKKPGSSVKVSCKASGGTFGSYTINWVRQAPGQGLEWMGGIIPIFGATNYAQNFQGRVSITADKSTATAYMDLISLRSEDTAVYYCARLGRSSPLNSCTTTSCYFWGRGMDVWGQGTTVTVSS
VL: QSVLIQPASVSGSPGQSITISCTGTISDVGIYNYVSWYQQHPGKAPKLIISDVSDRPSGVSNRFSGSKSGITASLTITGLQAEDEADYYCSSYSSSSTLYVFGTGTKLTVL
For B3, the “Neutralization IC50 (RSV subtype A)” value (RSV F on RSV-A2 virus) was greater than 25 µg/mL, the Kd [1] was 3.37 nM and the Kd [2] was 1.49 nM.

B4: ADI-41484 (antibody, V domains shown)
VH: EVQLVESGPGLVKPSEALSLTCTVSGASISSYYWTWIRQSPRKGLEWIGYIYHTGRTNYNPSLKRRVTMSVDWSKNQFSLTLSSVTAADTAVYYCARLKVVPAALESAILEHHFGLDVWGQGTTVTVSS
VL: DIVMTQTPSTLSASIGDRVTLTCRASQSINRWLAWYQQKPGKAPKLLIYKASTLESGVPSRFSGSGSGTEFTLTISGLQPDDFATYYCQQYNNFPYTFGPGTKVDIK
With B4 the “Neutralization IC50 (RSV subtype A)” value (RSV F on RSV-A2 virus) was greater than 25 µg/mL, the Kd [1] was 3.44 nM and the Kd [2] was 0.782 nM.

B5: ADI-41469 (antibody, V domains shown)
VH: EVQLVESGGGVVQPGRSLRLSCAASGFTFSSYGMHWVRQAPGKGLEWVAVISYDGSFIKYADSMMGRFTISRDNSKNTLYLQMSSLRPEDTATYYCAKDALIPEYWGQGTLVTVSS
VL: QPVLTQPASVSGSPGQSITISCTGTSSDVGGYNYVSWYQKHPDKAPRVIIYEVSNRPSGVSNRFSGSKSGNTASLTISGLQAEDEADYYCCSYTSTSGVVFGGGTKLTVL
With B5 the “Neutralization IC50 (RSV subtype A)” value (RSV F on RSV-A2 virus) was 0.35 µg/mL, the Kd [1] was 0.28 nM and the Kd [2] was 0.345 nM.

B6: ADI-41486 (antibody, V domains shown)
VH: QVQLQQWGAGLLKPSETLSLTCSVYGGSFSGYYWSWIRQPPGKGLEWIGEINHSGSTNYNPSLKSRITISVDTSKNQFSLKLNSVTAADTAVYYCARGDYAFVTFDYWGQGTLVTVSS
VL: QSVLTQPASVSGSPGQSITISCTGTSSDVGGYNYVSWYQQHPGKAPKLMIYEVSNRPSGVSNRFSGSKSGNTASLTISGLQAEDEADYYCSSYTSSSTPVFGGGTKLTVL
notes: also called Ab 767; Antibody Number 767
In the case of B6, the “Neutralization IC50 (RSV subtype A)” value (RSV F on RSV-A2 virus) is reported as greater than 25 µg/mL, the Kd [1] is reported as 2.86 nM and the Kd [2] is reported as 0.448 nM.

B7: ADI-41474 (antibody, V domains shown)
VH: QVQLVQSGAEVKRPGASVKVSCKISGYTFTSHYIHWLRQAPGQGLEWMGWINPNTGDTKYEQKFQGRVTMTRDTSLSTAYMELRRLRSDDTAVYYCARDSFYAANGYYFVWFDPWGQGALVTVSS
VL: DIQMTQSPTSLSASVGDRVTITCRASQSISSYLNWYQQKPGKAPRFLIYAASSLQSGVPSRFRGSGSGTDFTLTISSLQPEDFATYYCQQSYSSPYTFGQGTKVEIK
notes: also called Ab 757; Antibody Number 757
With B7 the “Neutralization IC50 (RSV subtype A)” value (RSV F on RSV-A2 virus) was 0.26 µg/mL, the Kd [1] was 17.8 nM and the Kd [2] was 34.8 nM.

B8: ADI-41485 (antibody, V domains shown)
VH: EVQLLESGPGLVRPSETLSLTCTVSGGSLDSGPHYWNWIRQPPGKGLEWIGYIYYSVSTNYNPSLKSRVTISMDTSKNQFSLNLTSVTAADTAVYYCASFQLIYGPQIWGQGKKVTVSS
VL: DIVLTQSPSSVSASVGDRVTITCRASQAISSWLIWSQHKPGKAPKVLIYAASSLQSGVPSRFSGSGSGTDFTLTISSLQPEDFATYYCQQANNFPLTFGGGTKVEIK
B8 was tested, and the “Neutralization IC50 (RSV subtype A)” value (RSV F on RSV-A2 virus) was greater than 25 µg/mL, the Kd [1] was 3.01 nM and the Kd [2] was 1.02 nM.

B9: ADI-41468 (antibody, V domains shown)
VH: QVQLQQWGAGPLKSSETLSLTCEVYGGPFSGYSWSWIRQPPGKGLEWIGEINHSGSTNYNPSLKSRVSFSVDTSKNQFSLKLSSVTAADTAVYYCARGAGFCTSTSCPPGLYYYYGMDVWGHGTTVTVSS
VL: SYELTQPLSVSVALGQTARITCGGNNIESKNVHWYQQMPGLAPVMVIYRDTNRPSGIPERFSGSNSGNTATLTISRAQAGDEADYYCQVWDSGTVIFGGGTKLTVL
notes: also called Ab 752; Antibody Number 752
For B9, the “Neutralization IC50 (RSV subtype A)” value (RSV F on RSV-A2 virus) was greater than 25 µg/mL, the Kd [1] was 0.716 nM and the Kd [2] was 0.344 nM.

B10: ADI-41473 (antibody, V domains shown)
VH: QVQLVQSGPGLVKPSQTLSLTCAISGDSVSSNSAAWSWIRQSPSRGLEWLGRTYYRSKWYYDHAVSVEGRITINADTSKNHFSLQLNSVTPEDTAVYYCARDPDSGNYFHYYGMDVWGQGTTVTVSS
VL: ETTLTQSPATLSLSPGERATLSCRTSQSVSSYLAWYQQKPGQAPRLLIYDASRRATGIPARFSGSGSGTHFTLTITSLEPEDFAVYYCQQRSKWPPYSFGQGTKVDIK
For B10, the “Neutralization IC50 (RSV subtype A)” value (RSV F on RSV-A2 virus) was greater than 25 µg/mL, the Kd [1] was 12.7 nM and the Kd [2] was 31.2 nM.

B11: ADI-41475 (antibody, V domains shown)
VH: QVQLQESGPGLVKPSQTLSLTCAISGDSVSSNSAAWNWIRQSPSRGLEWLGRTYYRSKWWTDYAVSVKSRITINPDTSKNQFSLQLNSVTPEDTAVYYCARDPDSGNYFHYYGMDVWGQGTTVTVSS
VL: ETTLTQSPATLSLSPGERATLSCRASQSASSYLAWYQQKPGQAPRLLIYDASKRATGIPARFSGSGSGTDFSLTISSLEPEDFAVYYCQLRSKWPPYTFGQGTKVEIK
With B11 the “Neutralization IC50 (RSV subtype A)” value (RSV F on RSV-A2 virus) was greater than 25 µg/mL, the Kd [1] was 12.2 nM and the Kd [2] was 25.5 nM.

B12: ADI-41472 (antibody, V domains shown)
VH: QVQLVQSGAEVKKPGSSVKVSCKASGGTFSSYAISWVRQAPGQGLEWMGRIIPVLDITNYAQKFQGRVTIMADKSTSTAYMELSSLRSEDTAIYYCARETSNFYFYYNAMDVWGQGTTVTVSS
VL: QPVLTQPPSASGSPGQSVTISCTGTSSDVGGDNYVSWYQQHPGKAPKLLIYEVSKRPSGVPDRFSGSRSGHTASLTVSGLQAEDEADYYCSSYAGRNNLGVFGGGTKLTVL
With B12 the “Neutralization IC50 (RSV subtype A)” value (RSV F on RSV-A2 virus) was 0.27 µg/mL, the Kd [1] was 3.05 nM and the Kd [2] was 1.06 nM.

B13: ADI-41494 (antibody, V domains shown)
VH: EVQLVESGGGLVQPGRSLRLSCTTSGFTFGDYAVTWVRQAPGKGLEWIGIMKSKTYRGTTDYAASLRGRFSISRDDSKSIAYLQMTSLKSEDTGVYYCVRGHDYGDPFDYWGQGTLVTVSS
VL: QSVLTQPASVSGSPGQSITISCTGGSSDVGYYNYVSWYQQHPGKAPKLLIYDVNNRPSGVSDRFSGSKSGNTASLTISGLQPEDEADYYCSSYTRSRTWVFGGGTKLTVL
notes: also called Ab 774; Antibody Number 774
With B13 the “Neutralization IC50 (RSV subtype A)” value (RSV F on RSV-A2 virus) was greater than 25 µg/mL, the Kd [1] was 2.61 nM and the Kd [2] was 0.44 nM.

B14: ADI-41495 (antibody, V domains shown)
VH: QVQLVQSGGGLVEPGGSLRLSCAASGFTFSNTWMNWVRQAPGKGLTWVGRIKRKTDFGTSDYAAPVKGRFTISRDDSKNMVFLQMNSLKIEDTGVYYCTTHPRPYLDTTAVVYWGQGTLVTVSS
VL: QPVLTQPHSVSESPGKTVTISCIGSSGSITSNYVQWFQQRPGSAPTTVIYEDDQRPSGVPDRFSGSIDSSSNSASLTISGLKTEDEADYYCQSYHHTNPWVFGGGTKLTVL
For B14, the “Neutralization IC50 (RSV subtype A)” value (RSV F on RSV-A2 virus) was greater than 25 µg/mL, the Kd [1] was 77.2 nM and the Kd [2] was 57.3 nM.

B15: ADI-41492 (antibody, V domains shown)
VH: QVQLVQSGAEVRKPGSSVKVSCKASGGTFNSFVISWVRQAPGQGLEWMGRIIPILATVDYAQKFQGRVTITADKSTTTAYMELSGLTSEDTAVYYCARDPPRWDTTMADYYYQGMDVWGQGTTVTVSS
VL: DIRVTQSPASLSAFVGDRVTISCRASQSIGSFLNWYQQKPGKAPKLLIYAASSLQSGVPSRFSGSGSGTDFTLAISSLQPEDFATYYCQQSYRSTPTFGGGTKVEIK
In the case of B15, the “Neutralization IC50 (RSV subtype A)” value (RSV F on RSV-A2 virus) is reported as greater than 25 µg/mL, the Kd [1] is reported as 182 nM and the Kd [2] is reported as 54.8 nM.

B16: ADI-41471 (antibody, V domains shown)
VH: QVQLVQSGADVKKPGSSVKISCKASGGSFITNSLSWVRRAPGQGLEWMGGIIPVSGTTTYAQKFLGRVTFTADESTSTAYMELNSLRSEDTAVYYCARFLGTPYPNVHYGMDVWGQGTTVTVSS
VL: DIRVTQSPSSLSASVGARVTITCRASQSISTYLNWYQEKPGKAPKLLIYAASSLQRGVPSRFSGSGSETTFTLTISSLQPEDFATYYCQQSYTAAYNFGQGTKVEIK
In the case of B16, the “Neutralization IC50 (RSV subtype A)” value (RSV F on RSV-A2 virus) is reported as greater than 25 µg/mL, the Kd [1] is reported as 3.75 nM and the Kd [2] is reported as 0.761 nM.

B17: ADI-41487 (antibody, V domains shown)
VH: QVQLVESGGGLVKPGGSLRLSCAASGFTFSTYTMNWVRQAPGKGLEWVSSISGSSAYIYYADSVKGRFTISRDNAKNSLFLQMNSLRAEDTAVYYCARLQGLVLPAVMPSYYYYSGMDVWGQGTTVTVSS
VL: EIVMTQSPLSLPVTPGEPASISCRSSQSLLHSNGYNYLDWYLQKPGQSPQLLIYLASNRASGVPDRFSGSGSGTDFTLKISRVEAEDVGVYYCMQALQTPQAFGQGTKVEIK
notes: also called Ab 768; Antibody Number 768
With B17 the “Neutralization IC50 (RSV subtype A)” value (RSV F on RSV-A2 virus) was greater than 25 µg/mL, the Kd [1] was 3.12 nM and the Kd [2] was 0.754 nM.

B18: ADI-41466 (antibody, V domains shown)
VH: QVQLVQSGAEVKKPGASVKVSCKASGYTFNFYYMHWVRQAPGQGLEWMGWINPKSGGTSYAQKFQGRVIMTGDTSISTTYMELSRLRSDDTAVYYCARADTGLELDVWGQGTTVTVSS
VL: QSALIQPASVSGSPGQSITISCTGTSSDVGGYNYVSWYQQHPGKAPKLILYDVSKRPSGVSNRFSGSKSGNTASLTISGLQAEDESDYFCSSYTRSNTVVFGGGTKVTVL
notes: also called Ab 750; Antibody Number 750
With B18 the “Neutralization IC50 (RSV subtype A)” value (RSV F on RSV-A2 virus) was greater than 25 µg/mL, the Kd [1] was 2.05 nM and the Kd [2] was 0.383 nM.

B19: ADI-41480 (antibody, V domains shown)
VH: EVQLLESGPGLVRPSGTLSLTCTVSGDSISGSNWWAWVRQPPGRRLEWIGEIYYRGATDYNSSLKSRVIISVDNSKNQFSLNLRSVTAADTAIYYCARVEKFATSGYYISYFDYWGQGTLVTVSS
VL: DIRVTQSPSSLSASVGDRVTITCRASQSISTYLNWYQHNPGKAPKLLIYAASSLQSGVPSRFSGSGSGTHFTLTISSLQPADFSTYYCQQSYSSPWTFGQGTKVEIK
For B19, the “Neutralization IC50 (RSV subtype A)” value (RSV F on RSV-A2 virus) was greater than 25 µg/mL, the Kd [1] was 4.34 nM and the Kd [2] was 0.703 nM.

— patent US20260258115A1 (MAPP BIOPHARMACEUTICAL, published 2026)
